test system: Escherichia coli TOP10; assay: shrunken log2 fold change of peptide-encoding DNA abundance (4.5 h post-induction vs induction); higher = less antimicrobial activity (less host growth inhibition); details: time post-induction: 4.5 h; library: site-saturation at positions 5, 18, 19, 20
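Also: peptides expressed intracellularly from a pBAD plasmid library in pooled LB shake-flask culture, induced with 0.3% L-arabinose, DNA abundance read by NGS, three biological replicates, DESeq2 with apeglm shrinkage.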

Sequence | shrunken log2 fold change
RRIRLRPPRLPRPRPRPLGIPRP | -0.199
RRIRNRPPRLPRPRPRPDGEPRP | -0.00776
RRIRMRPPRLPRPRPRPGPWPRP | 0.89
RRIRDRPPRLPRPRPRPMRPPRP | 0.804
RRIRVRPPRLPRPRPRPNISPRP | -0.321
RRIRHRPPRLPRPRPRPMKRPRP | 0.0794
RRIRQRPPRLPRPRPRPGTMPRP | 0.00897
RRIRKRPPRLPRPRPRPWLIPRP | 0.109
RRIRIRPPRLPRPRPRPINDPRP | -0.657
RRIRLRPPRLPRPRPRPQSFPRP | -0.0139
RRIRYRPPRLPRPRPRPGGYPRP | -0.00146
RRIRRRPPRLPRPRPRPQIYPRP | -0.1
RRIRLRPPRLPRPRPRPERTPRP | 0.098
RRIRCRPPRLPRPRPRPRDPPRP | 0.864
RRIRRRPPRLPRPRPRPGPLPRP | 0.415
RRIRDRPPRLPRPRPRPQDAPRP | -0.103
RRIRARPPRLPRPRPRPHESPRP | 0.779
RRIRKRPPRLPRPRPRPPECPRP | 0.0514
RRIRVRPPRLPRPRPRPIAWPRP | 0.468
RRIRHRPPRLPRPRPRPKVDPRP | -0.0132
RRIRIRPPRLPRPRPRPQAAPRP | -0.115
RRIRWRPPRLPRPRPRPFSTPRP | -0.14
RRIRNRPPRLPRPRPRPEHMPRP | -0.0791
RRIRMRPPRLPRPRPRPVFMPRP | -0.202
RRIRPRPPRLPRPRPRPAWGPRP | 0.503

Sequence | shrunken log2 fold change
RRIRSRPPRLPRPRPRPKMNPRP | -0.163
RRIRLRPPRLPRPRPRPHVVPRP | 0.00383
RRIRHRPPRLPRPRPRPSPTPRP | 0.0862
RRIRHRPPRLPRPRPRPRWDPRP | 0.127
RRIRWRPPRLPRPRPRPICVPRP | -0.12
RRIRPRPPRLPRPRPRPTYLPRP | -0.113
RRIRDRPPRLPRPRPRPFEEPRP | 0.0467
RRIRARPPRLPRPRPRPAWTPRP | -0.0258
RRIRERPPRLPRPRPRPSMWPRP | -0.0377
RRIRRRPPRLPRPRPRPIQQPRP | -0.0495
RRIRGRPPRLPRPRPRPWRYPRP | 0.122
RRIRLRPPRLPRPRPRPMVGPRP | -0.135
RRIRKRPPRLPRPRPRPQQFPRP | -0.0324
RRIRPRPPRLPRPRPRPQPEPRP | 0.47
RRIRFRPPRLPRPRPRPGHMPRP | -0.0911
RRIRRRPPRLPRPRPRPDFRPRP | 0.118
RRIRERPPRLPRPRPRPLAFPRP | -0.0552
RRIRIRPPRLPRPRPRPCPMPRP | -0.367
RRIRSRPPRLPRPRPRPSKWPRP | -0.285
RRIRIRPPRLPRPRPRPHAGPRP | -0.242
RRIRLRPPRLPRPRPRPERLPRP | 0.466
RRIRQRPPRLPRPRPRPEMAPRP | -0.0608
RRIRARPPRLPRPRPRPCCYPRP | 0.0589
RRIRERPPRLPRPRPRPKCGPRP | 0.0971
RRIRGRPPRLPRPRPRPSPQPRP | 0.826

Sequence | shrunken log2 fold change
RRIRPRPPRLPRPRPRPSRDPRP | -0.109
RRIRPRPPRLPRPRPRPSVQPRP | -0.0553
RRIRTRPPRLPRPRPRPGTNPRP | -0.0901
RRIRCRPPRLPRPRPRPWRYPRP | 0.0621
RRIRFRPPRLPRPRPRPKKDPRP | 0.184
RRIRLRPPRLPRPRPRPHIEPRP | -0.0305
RRIRDRPPRLPRPRPRPDWKPRP | 0.0755
RRIRLRPPRLPRPRPRPYDFPRP | -0.0867
RRIRPRPPRLPRPRPRPNDDPRP | -0.188
RRIRYRPPRLPRPRPRPWAIPRP | 0.0155
RRIRNRPPRLPRPRPRPTFQPRP | 0.0675
RRIRDRPPRLPRPRPRPDKTPRP | 0.0138
RRIRTRPPRLPRPRPRPIEGPRP | -0.0197
RRIRFRPPRLPRPRPRPKDQPRP | 0.0707
RRIRFRPPRLPRPRPRPKWTPRP | -0.196
RRIRWRPPRLPRPRPRPRPYPRP | 0.0357
RRIRQRPPRLPRPRPRPFKVPRP | -0.00664
RRIRGRPPRLPRPRPRPSTRPRP | 0.114
RRIRRRPPRLPRPRPRPFYWPRP | -0.34
RRIRQRPPRLPRPRPRPPTLPRP | -4.2e-05
RRIRTRPPRLPRPRPRPHWEPRP | -0.171
RRIRRRPPRLPRPRPRPWTMPRP | -0.257
RRIRWRPPRLPRPRPRPIFFPRP | 0.125
RRIRCRPPRLPRPRPRPGELPRP | 0.139
RRIRPRPPRLPRPRPRPCSDPRP | -0.131

Sequence | shrunken log2 fold change
RRIRGRPPRLPRPRPRPYFVPRP | 0.0122
RRIRSRPPRLPRPRPRPMMEPRP | 0.0765
RRIRWRPPRLPRPRPRPPVTPRP | 0.283
RRIRIRPPRLPRPRPRPMPQPRP | -0.133
RRIRQRPPRLPRPRPRPAYMPRP | -0.263
RRIRERPPRLPRPRPRPSAGPRP | -0.118
RRIRVRPPRLPRPRPRPLEMPRP | -0.308
RRIRYRPPRLPRPRPRPEFEPRP | -0.00195
RRIRARPPRLPRPRPRPCTIPRP | -0.000283
RRIRKRPPRLPRPRPRPSCPPRP | -0.0238
RRIRKRPPRLPRPRPRPYLPPRP | -0.354
RRIRVRPPRLPRPRPRPVMAPRP | 0.0266
RRIRFRPPRLPRPRPRPFYIPRP | -0.489
RRIRQRPPRLPRPRPRPCVYPRP | 4.4
RRIRMRPPRLPRPRPRPHYDPRP | -0.135
RRIRGRPPRLPRPRPRPTKSPRP | 0.583
RRIRKRPPRLPRPRPRPNCGPRP | 0.0611
RRIRARPPRLPRPRPRPPCTPRP | 0.164
RRIRHRPPRLPRPRPRPTNRPRP | -0.162
RRIRIRPPRLPRPRPRPAPRPRP | 0.733
RRIRGRPPRLPRPRPRPHKHPRP | 0.0984
RRIRKRPPRLPRPRPRPAHIPRP | -0.137
RRIRRRPPRLPRPRPRPYFLPRP | -0.542
RRIRPRPPRLPRPRPRPYIAPRP | -0.395
RRIRPRPPRLPRPRPRPLAPPRP | 0.33

Sequence | shrunken log2 fold change
RRIRSRPPRLPRPRPRPFIFPRP | -0.343
RRIRNRPPRLPRPRPRPDFTPRP | 0.0959
RRIRNRPPRLPRPRPRPIGDPRP | -0.0116
RRIRNRPPRLPRPRPRPCAKPRP | -0.0333
RRIRERPPRLPRPRPRPEINPRP | -0.2
RRIRSRPPRLPRPRPRPCNFPRP | -0.702
RRIRTRPPRLPRPRPRPIQIPRP | 0.0193
RRIRRRPPRLPRPRPRPTDYPRP | -0.00271
RRIRWRPPRLPRPRPRPPSAPRP | 0.744
RRIRNRPPRLPRPRPRPWVCPRP | 0.037
RRIRCRPPRLPRPRPRPFNLPRP | -0.335
RRIRYRPPRLPRPRPRPGYGPRP | -0.541
RRIRCRPPRLPRPRPRPFGVPRP | -0.0152
RRIRYRPPRLPRPRPRPTPGPRP | -0.0705
RRIRVRPPRLPRPRPRPQVDPRP | 0.00887
RRIRHRPPRLPRPRPRPFTFPRP | -0.0857
RRIRERPPRLPRPRPRPQWRPRP | -0.0529
RRIRWRPPRLPRPRPRPAQSPRP | 0.135
RRIRNRPPRLPRPRPRPLYGPRP | -0.171
RRIRNRPPRLPRPRPRPTMDPRP | -0.266
RRIRQRPPRLPRPRPRPKDTPRP | -0.0272
RRIRKRPPRLPRPRPRPTYNPRP | -0.0201
RRIRVRPPRLPRPRPRPIIQPRP | -0.28
RRIRIRPPRLPRPRPRPGIFPRP | -0.5
RRIRHRPPRLPRPRPRPYVEPRP | 0.0369

Sequence | shrunken log2 fold change
RRIRVRPPRLPRPRPRPAQEPRP | 0.0593
RRIRPRPPRLPRPRPRPCEPPRP | -0.00302
RRIRMRPPRLPRPRPRPYFFPRP | -0.175
RRIRGRPPRLPRPRPRPNNVPRP | -0.131
RRIRHRPPRLPRPRPRPISEPRP | -0.0415
RRIRDRPPRLPRPRPRPHPWPRP | 0.114
RRIRPRPPRLPRPRPRPFPNPRP | -0.0765
RRIRDRPPRLPRPRPRPNRVPRP | -0.023
RRIRFRPPRLPRPRPRPSKWPRP | -0.273
RRIRTRPPRLPRPRPRPSKPPRP | -0.487
RRIRERPPRLPRPRPRPHKYPRP | -0.902
RRIRIRPPRLPRPRPRPSQWPRP | -1.15
RRIRHRPPRLPRPRPRPVLDPRP | -0.116
RRIRYRPPRLPRPRPRPYNIPRP | -0.426
RRIRFRPPRLPRPRPRPSITPRP | -0.262
RRIRIRPPRLPRPRPRPTMRPRP | 0.553
RRIRHRPPRLPRPRPRPAEIPRP | 0.000898
RRIRNRPPRLPRPRPRPPTWPRP | 0.434
RRIRFRPPRLPRPRPRPDQAPRP | -0.0167
RRIRSRPPRLPRPRPRPVCWPRP | 0.714
RRIRHRPPRLPRPRPRPMGAPRP | 0.0492
RRIRLRPPRLPRPRPRPMFFPRP | -0.381
RRIRYRPPRLPRPRPRPSNTPRP | -1.06
RRIRGRPPRLPRPRPRPHCYPRP | 0.0539
RRIRGRPPRLPRPRPRPEDKPRP | 1.23

From the supplement of paper PMC9112550, “Optimization of the antimicrobial peptide Bac7 by deep mutational scanning” (BMC Biology, 2022)
